Experimental data taken from the nanobody polyreactivity screen of Harvey et al. (2022).

Experiment: yeast display, Sf9 membrane polyspecificity reagent, FACS + sequencing; frameworks hold sequencing errors
Procedure, shortened: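 A nanobody's polyreactivity label depends on the gate it was sorted from. Yeast display cells were stained with 10% biotinylated, detergent-solubilized Sf9 membrane reagent for 1 hour at 4 °C, enriched on streptavidin microbeads and sorted by FACS. The low and high (top ~1%) gates were set on anti-HA fluorescence for expression and streptavidin fluorescence for reagent binding.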

Sequence | polyreactivity (PSR sort gate)
QVQLVESGGGLVQAGGSLRLSCAASGRIFKKYAMGWYRQAPGKERELVATISSGGSTYYADSVKGRFTISRDNSKNTVYLQMNSLKPEDTAVYYCARREYVRRDYFVTTYDYWGQGTQVTVSS | low polyreactivity
QVQLVESGGGLVQAGGSLRLSCAASVRTFDSYTMGWYRPAPGKERELVAAIRSSGGRTYADSVKGRFTISRDNAKNTVYLQMNSLKPEDTAVYYCAAARSYWAKYYYWGQGTQVTVSS | high polyreactivity
QVQLVESGGGLVQAGGSLRLSCADSGSIFNGNTMGWYRQAPGKERELVAAITSGGRTYYADSVKGRFTISRDNAKNTVYLQMNSLKPEDTAVYYCATRNPYYRSYYSYDYWGQGTQVTVSS | high polyreactivity
QVQLVESGGGLVQAGGSLRLSCAASGSTFFYKAMGWYRPAPGKERELVAVISSRGTSTYYADSVKGRFTISRDNAKNTVYLQMNSLKPEDTAVYYCAAVQIRHTATLLHKPGYYWGQGTQVTVSS | high polyreactivity
QVQLVESGGGLVQAGGSLRLSCAASGLIFVSNAMGWYRQAPGKERELVAAISWSGSRTYYADSVKGRFTISRDNAKNTVYLQMNSLKPEDTAVYYCNAVRRGLPVVGAYDYWGQGTQVTVSS | high polyreactivity
QVQLVESGGGLVQAGGSLRLSCAASGSSLWYNTMGWYRQAPGKERELVATISGSGANTYYADSVKGRFTISRDNAKNTDYLQMNSLKPEDTAGYYCAAVYRRWGYSSEYDYWGQGTQVTVSS | high polyreactivity
QVQLVESGGGLVQAGGSLRLSCAASGSIFLRYAMGWYRQAPGKERELVATISKSGGSTYYADSVKGRFTISRDNAKNTVYLQMNSLKPEDTAVYYCAAGYVYFQTYYYWGQGTQVTVSS | high polyreactivity
QVQLVESGGGLVHAGGSLRLSCAASGSIFVVYTMGWYIQAPGKERELVADISASGGRTYYADSVKGRFTISSDNAKNTVYLKMNRLKPEDTAVYYCARVWYSSYSSESYSDHDYWGQGTQGTVSS | high polyreactivity
QVQLVESGGGLVQAGGSLRLSCAASGSTFPPNAMGWYRQSPGKERELVAVISYSDGSTYYADSVKGRFTISRDNAKNTVYLQMNSLKPEDTAVYYCAAYCGYGGVSMYYWGQGTQVTVSS | low polyreactivity
QVQLVESGGGLVQAGGSLRLSCAASGRTFHNYAMGWYRQAPGKEREFVAVITGSGGRTYYADSVKGRFTISRDNAKNTVYLQMNSLKPEDTAVYYCNRVSRYYLYDYWGQGTQVTVSS | high polyreactivity
QVQLVESGGGLVQAGGSLRLSCAASGSTFIAYALGWYRQAPGKERELDAAITTGDSTNYADSVKGRFTISRDNAKNTVYLQMNSLKPEDTAVYYCNADGTDFHFLSEIGSSQEGDYWGQGTQVTVSS | low polyreactivity
QVQLVESGGGLVQAGGSLRLSCAASGFTFVINDMGWNRQAPGKERELVADITSGGDTYYADSVKGRFTISRDNAKNTVDLQMNSLKPEDTAVYYCAADIYPDWIYLLYGYWGQGTQVTVSS | low polyreactivity
QVQRVESGGGLVQAGGRLRLSCAASGSIFASYDMGWYRQSRGKERELVARITFNAGSTYYADSVKGRFTISRDNAKNTVYLQMNSLKPEDTAVYYCIADYPWEYDYWGEGTQVTVSS | low polyreactivity
QVQLVESGGGLVQAGGSLRLSCAASGRIFDYYAMGWYRQAPGKERELVAVINRDGSTYYADSVKGRFTISRDNAKNTVYLQMNSLKPEDTAVYYCARDSAWAARGPFTDGAYDSWGQGTQVTVSS | low polyreactivity
KVQLVESGGGLVQAGGSLRLSCAASGIFLDRNAMGWYRQAPGKERELVAAINSIGGSTYYADSVKGRFTISRDNAKNTVYLQMNSLKPEDTAVFYCAAPSTSSYYWGQGTQVTVSS | low polyreactivity
QVQLVESGGGLVQAGGSLRLSCAASGRIFRVYAMGWYRQAPGKERELVAAISWSGGRTYYADSVKGRFTISRDNAKNTVYLQMNSLKPEDTAVYYCAAVRYERGLWSDYWGQGTQVTVSS | high polyreactivity
QVQLVESGGGLVQAGGSLRLSCAASGRIFPKNAMGWYRQAPGKERELVASISSAGSTNYADSVKGRFTISRDNAKNTVYLQMNSLKPEDTAVYYCAAYHQSFGGVKGYYWGQGTQVTVSS | high polyreactivity
QVQLVESGGGLVQAGGSLRLSCAATGSIFSRYAMGWYRQAPGKERELVAAISWRGGGTYYADSVKGRFTISRDNAKNTVYLQMNSLKPVDTAVYYCAADDTPDDSDYWGQGTQVTVSS | low polyreactivity
QVQLVESGGGLVQSGGSLRLSCAASGFIFGGYAMGWYRQAPGTERELVASITWSGGRTFYADSVKGRFTISRDNAKNTVYLQMNSLKPEDTEVYYCAAGIYFTPYYYYPPNPFDYWGQGTQVTVSS | low polyreactivity
QVQLVESGGGLVKAGGSLRLSCAASGRIFYTNDMGWYSQAPGKERELVATISSTGSTNYADSVKGRFTISRDNAKNTVYLEMNSLKPEDTAVYYCAADRSYFLRCIIYDYWGQGTQVTVSS | low polyreactivity
QVQLVESGGGLVQAGGSLRLSCAASGRIFFDYAMGWYRQAPGKERELVAAISSGGSRTYYADSVKGRFTISRDNAKNTVYLQMNSLKPEDTAVYYCAADSTVYQDEYWGQGTQVTVSS | high polyreactivity
QVQLVESGGGLVQAGGSLRLSCAASGRTFVYYAMGWYRQAPGKERELVAAITSVGSTYYADSVKGRCTISRDNAKNTVYLQMNSLKPEDTAVYSCAKDTWAYPYYWPYDDYWGHGTQVTVSS | low polyreactivity

Sequence | polyreactivity (PSR sort gate)
QVQLVESGGGLVQAGGTLRLSCSASGRTFYSYAMGWYRQAPGKERELVAAISYTGASTFYADSVKGRFTISRDNAKNTVYLQMNSLIPEDTAVYYCAAESQPSYGETDEYWGQGTQVTVSS | high polyreactivity
QVQLVESGAGLVQAGGSLRLSCASSGSIFVSNAMGWYRKAPGKERELVAAISQSGGSTYYADSVKGRFTISRDNAKNTVYLLMNSLKPEDTAVYYCATPIRSGFRIYDYWGQGTQVTVSS | low polyreactivity
QDQLVESGGCLVQAGGSLRLSCAAYGSTFYRYTMGWYRQAPGKERELVAAISRSGGRTYYADSVKGRFTLSRDNAKNTVFVQINSLKPEDTAVYYCNAEIASSAVQAQEGDYWGQGTQVTVSS | high polyreactivity
QVKLVESGGGLVQAGGSLRLSCAASGRIFLWYAMGWYRQEPGKERELVAAISSNGGSTRYAHSVKGRFTISRDNAKNTVYLQMNSLKPEDTAVYYCNADVHWNRYPYGGNGYGYWGQGTQVTVSS | low polyreactivity
QVQLVESRGGLVQAGGSLRLSCAASGPTFRNTAMGWSRQAPGKDREFVAVISNTGGSTYYADSVKGRFTISRDNAKNTVYLQMNSLKAEDTAVYYCGVRPRYSQYYYWGQGTQVTVSS | high polyreactivity
QVQLVESGGGLVQAGGSLRLSCDASGRTSGINAMGWYRQAPGKERELVAAISSGGRTYYADSVKGRFTISRDNAKNTVYLQMNSLKPEDTAVYYCAAVIHWSLYRRMEYWGQGTQVTVSS | high polyreactivity
QVHLVESGGGLVQAGGSLRLSCAASGSIFDYYAMGWYRQAPGKERELVAAITYDSGRTYYADSVKGRFTNSRDNAKNTVYLQMYSLKPEDTAVYYCNKYSYSWRYCPGTSGYDYWGQGTQVTVSS | low polyreactivity
QVQLVESGGCLVQAGGSLRLSCAASGRTFRGYAMGWYRQAPGKERELVARISVSGGSTYYADSVKGRFTISRDNAKNTVYLQMNSLTPDDTAVYYCNARPYTYWRSQYDYWGQGTQVTVSS | high polyreactivity
QVQLVESGGGLVQAGGSLRLSCAASGFIFGYNAMGWYRQAPGKERELVAAITSRGDRTYYADSVKGRFTISRDNAKNTVYLQMNSLKPEDTAVYYCAKATRGYRSPYGSIGYYYWGQGTQVTVSS | high polyreactivity
EVQLVESGGGLVQAGGSLRLSCADSGGIFIFYALGWYRQAPWKEREFVASIRSNVGSTYYADSVKGRFTISRDNAKNTVYLQMNSLNPEDTAVYYCNSRYYWYRGYDYWGQGTQVTVSS | high polyreactivity
QVQLVESGGGLVQAGGSLRLSCAASGRTFAIYVMGWYRQAPGKEMELVAAISRGGSTYYADSVKGRFTISRDNAKNTVYLQMNSLKPEDTAVYYCAAGTGTTSRYYYWGQGTQVTVSS | high polyreactivity
QVQLVESGGGLVQAGGSLRLSCAASGSIFKYNAMGWYRQAPGKERELVAAITNGGSTYADSVKGRFTISRDNAKNTVYLQMNSLKPEDTAVYYCNFYGQDGVNVTYDYWGQGTQVTVSS | low polyreactivity
QVQLVESGGGLVQAGGSLRLSCAASGYTFIVNAIGWYRQAPGKERQLVAAISRSGSSTRSADSVKWRFTISRDNAKNTVYLLMNRLKPEDTSVYYCAADLYSSEGRYYFWGQGTQVTVSS | high polyreactivity
QVQLVESGGGLFQAGGSLRLSCAASGRTFSRYVMGWYRQAPGKERELVAAISRTGGRKYYADSVKGRFTITRDNAKNTVYLQMNSLKPEDTAVYYCNAGTVLISTYDYWGQGTQVTVSS | high polyreactivity
QDQLVESGGGLVQAGGSLRLSCAASRITIYRYVMGWYRQAPGKERELVAAITSAGSTNYADSVKGRFTISRDHAKTTVYLQMNSLKPEDTAVYYCNADYKGYVRPYVRIRYGYWGQGTQVTVSS | low polyreactivity
QVQLVESGGGLVQAGGSLRLSCAASGLTFRPYTMGWYRQAPAKERELVAAISARGGRTYYADSVKGRFTISRDNAKNTVYLQMNSLKPEDTAVYYCATLETTGVNYWGQGTQVTVSS | high polyreactivity
QVQLVESGGGLVQAGGSLRLSCAASGFIFRYYAMGWSRQAPGKERELVASINSGGSTYYADSVKGRFTISRDNAKNTVYLQMNSLKPEDTAVYYCAVVLQYDWAYEKSYYWGQGTQVTVSS | low polyreactivity
QVQLVESGGGLVQAGGSLRLSCAASGITFQYYDMGWYRQAPGKEREFVAAISWRSGRTYYADSVKGRFTISRDNAKNTVYLQMNSLKPDDTAVYYCTAALYGVTTDMDYWGQGTQVTVSS | high polyreactivity
QVQLVESGGGLVQAGGSLRLSCAASGFTFPGNAMGWYRQAPGKERELVAAISRSGAGTYYADSVKGRFTISRDNAKNTDYLQMNRLKPEDTAVYYCNAVYSSWDYHYRYGYWGQGTQVTVSS | high polyreactivity
QVQLVESGGGLVQAGGSLRLSCAASGRIFSSNAMGWYRQAPGTERELVAAITSGGSTYADSVKGRFTISRDNAKNTVYLQMNSLKPEDTAVYYCATRQGWYGWYGYWGQGTQVTVSS | high polyreactivity
QVQLVESGGALVQAGCSLRLSCAASGRTFYRNAMGWYRQAPGKERELVARISRNGGTTYYADSVKGRFTISRDNAKNTVYLQMNSLIPEYTAVYYCAAPIYDGARGDYWGQGTQVTVCS | high polyreactivity
